These results are taken from patent US20240190978A1 (CSBIOASSET, published 2024).

One experiment concerns the target T1, human CD40-Avi-tag (human, UniProt P25942 21-193).
T1 construct: Immobilized on NA-coated CM5 chips at about 200 RU; not shown: Avi-tag
Briefly: SPR (Biacore 8K, 25 °C), hCD40 immobilized, 1:1 binding model. The protocol:
(§1) To evaluate binding of the bispecific binding proteins disclosed herein, surface plasmon resonance (SPR) studies were performed on a Biacore 8k instrument (GE Healthcare) at 25° C. The binding of the protein analytes was tested in buffer: 10 mM HEPES, 150 mM NaCl, 3 mM EDTA, 0.05% TWEEN20, pH7.4 on surfaces consisting of a low density (˜200RU) of human CD40-Avi-tag or human CD80-Avi-tag which had been immobilized on NA-coated CM5 chips using standard protocol. The protein analytes were injected in a titration series at a flowrate of 50 ul/min. The data were analyzed using the Biacore Insight Evaluation software. An 1:1 binding kinetic and affinity models are applied for experimental data analysis. The value for the equilibrium dissociation constant (KD) was calculated as the ratio of the rate constants Kd/Ka.
(In general: In SPR one partner is held on a chip, and binding of the other changes the refractive index at the surface.)

A further experiment addresses T2, human CD80-Avi-tag (human, UniProt P33681 35-242).
T2 construct: also called immobilized human CD80; not shown: Avi-tag
T2 sequence (looked up): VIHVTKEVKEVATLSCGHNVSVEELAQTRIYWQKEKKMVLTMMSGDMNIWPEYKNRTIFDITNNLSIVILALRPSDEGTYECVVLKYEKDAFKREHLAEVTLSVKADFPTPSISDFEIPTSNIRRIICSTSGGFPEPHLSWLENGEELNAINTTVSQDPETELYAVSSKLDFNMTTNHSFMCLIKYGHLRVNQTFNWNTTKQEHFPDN
Briefly: SPR (Biacore 8K, 25 °C), hCD80 immobilized, 1:1 binding model. The protocol: as §1

T1 sequence (P25942 21-193 limits assumed): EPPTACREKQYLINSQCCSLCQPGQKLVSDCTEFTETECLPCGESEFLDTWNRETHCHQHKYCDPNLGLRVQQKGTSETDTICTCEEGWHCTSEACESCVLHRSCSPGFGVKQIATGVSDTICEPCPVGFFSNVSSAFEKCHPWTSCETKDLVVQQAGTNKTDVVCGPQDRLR

B1: α-CD40/CTLA-4 bispecific protein (SEQ ID NO: 2 with SEQ ID NO: 11) (bispecific antibody, human IgG4 S228P, kappa)
heavy: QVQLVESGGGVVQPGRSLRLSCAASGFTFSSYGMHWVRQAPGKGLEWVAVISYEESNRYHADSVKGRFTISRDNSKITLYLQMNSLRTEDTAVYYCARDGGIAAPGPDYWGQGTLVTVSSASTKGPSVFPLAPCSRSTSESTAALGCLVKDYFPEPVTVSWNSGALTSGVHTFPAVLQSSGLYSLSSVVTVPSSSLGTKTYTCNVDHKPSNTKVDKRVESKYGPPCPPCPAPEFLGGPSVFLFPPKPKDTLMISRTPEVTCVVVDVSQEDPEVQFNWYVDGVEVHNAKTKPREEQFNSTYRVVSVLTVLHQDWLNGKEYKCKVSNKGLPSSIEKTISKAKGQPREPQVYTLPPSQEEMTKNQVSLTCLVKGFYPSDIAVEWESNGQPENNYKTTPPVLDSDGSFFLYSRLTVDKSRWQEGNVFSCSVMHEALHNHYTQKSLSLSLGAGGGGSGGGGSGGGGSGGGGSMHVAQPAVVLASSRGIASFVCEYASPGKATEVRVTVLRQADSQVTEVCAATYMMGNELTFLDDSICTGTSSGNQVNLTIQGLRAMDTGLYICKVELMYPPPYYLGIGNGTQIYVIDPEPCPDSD
light: DIVMTQSPLSLTVTPGEPASISCRSSQSLLYSNGYNYLDWYLQKPGQSPQVLISLGSNRASGVPDRFSGSGSGTDFTLKISRVEAEDVGVYYCMQARQTPFTFGPGTKVDIRRTVAAPSVFIFPPSDEQLKSGTASVVCLLNNFYPREAKVQWKVDNALQSGNSQESVTEQDSKDSTYSLSSTLTLSKADYEKHKVYACEVTHQGLSSPVTKSFNRGEC
notes: also called Duotein-B; exemplary α-CD40/CTLA-4 bispecific protein
With B1, in the experiment with human CD40-Avi-tag, the affinity, expressed as Kd, was 0.325 nM; the koff is 9.84e-05 s⁻¹; the kon amounted to 303000 M⁻¹ s⁻¹. Further, in the experiment with human CD80-Avi-tag, the affinity, expressed as Kd, was 154 nM; the koff was found to be 0.12 s⁻¹; the kon stood at 780000 M⁻¹ s⁻¹.

A word on the Kd: it is a measure of binding affinity in units of concentration. One may read the koff as a measure of how fast the partners let go of each other. For orientation: kon means a measure of how fast the partners come together. Low values mean slower complex formation, high ones faster complex formation.
